Target: T1, CD19 expressed on cells (Daudi, Raji, K562-CD19) (human, UniProt P15391 20-556)
T1 chain: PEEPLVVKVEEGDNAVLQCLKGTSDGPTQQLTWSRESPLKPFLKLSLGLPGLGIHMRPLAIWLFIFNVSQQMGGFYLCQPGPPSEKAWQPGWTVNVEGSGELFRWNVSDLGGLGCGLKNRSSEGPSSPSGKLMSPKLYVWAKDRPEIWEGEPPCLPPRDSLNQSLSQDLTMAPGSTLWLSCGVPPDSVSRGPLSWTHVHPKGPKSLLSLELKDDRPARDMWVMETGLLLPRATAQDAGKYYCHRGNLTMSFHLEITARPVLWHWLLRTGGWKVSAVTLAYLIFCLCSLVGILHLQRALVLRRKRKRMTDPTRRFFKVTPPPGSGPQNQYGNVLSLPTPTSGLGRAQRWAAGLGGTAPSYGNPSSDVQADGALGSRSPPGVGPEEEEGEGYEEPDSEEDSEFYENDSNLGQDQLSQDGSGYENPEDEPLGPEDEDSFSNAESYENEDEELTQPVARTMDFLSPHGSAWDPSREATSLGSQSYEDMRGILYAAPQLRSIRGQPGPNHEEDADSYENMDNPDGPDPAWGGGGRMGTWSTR
Test: flow cytometry cell binding

EC50: 5 nM
B1: BTN2A1/3A1-Fc-CD19scFv heterodimeric protein (Fc fusion)
chain 1: QFIVVGPTDPILATVGENTTLRCHLSPEKNAEDMEVRWFRSQFSPAVFVYKGGRERTEEQMEEYRGRTTFVSKDISRGSVALVIHNITAQENGTYRCYFQEGRSYDEAILHLVVAGLGSKPLISMRGHEDGGIRLECISRGWYPKPLTVWRDPYGGVAPALKEVSMPDADGLFMVTTAVIIRDKSVRNMSCSINNTLLGQKKESVIFIPESFMPSVSPCAGSGSRKGGKRGSKYGPPCPPCPAPEFLGGPSVFLFPPKPKDQLMISRTPEVTCVVVDVSQEDPEVQFNWYVDGVEVHNAKTKPREEQFNSTYRVVSVLTVLHQDWLSGKEYKCKVSSKGLPSSIEKTISNATGQPREPQVYTLPPSQEEMTKNQVSLTCLVKGFYPSDIAVEWESNGQPENNYKTTPPVLDSDGSFFLYSRLTVDKSRWQEGNVFSCSVLHEALHNHYTQKSLSLSLGKDEGGEDGSDIQMTQTTSSLSASLGDRVTISCRASQDISKYLNWYQQKPDGTVKLLIYHTSRLHSGVPSRFSGSGSGTDYSLTISNLEQEDIATYFCQQGNTLPYTFGGGTKLEITGGGSGGGSGGGSEVKLQESGPGLVAPSQSLSVTCTVSGVSLPDYGVSWIRQPPRKGLEWLGVIWGSETTYYNSALKSRLTIIKDNSKSQVFLKMNSLQTDDTAIYYCAKHYYYGGSYAMDYWGQGTSVTVSS
chain 2: not shown

Source: US20240148828A1 (published 2024)
